Patent US9539289B2, “Immunostimulatory compositions and methods of manufacture” (APIMED MEDICAL HONEY LIMITED, priority 2012, dated 2017)

Key:
monocyte cell line = experiment: TNF-α response of a monocyte cell culture after 4 hours of treatment (Examples 3, 5-8); type: cell-based; conditions: 100 ng/ml dose
Procedure: The immunostimulatory effect was then tested using a variety of samples. Prior to the trial a monocyte cell culture was produced in order to eliminate any natural variation errors. The monocyte culture was then stimulated using a variety of agents and TNF-α concentration measured after 4 hours of treatment with the various reagents.
LPS was used as a positive control being a known and strongly significant stimulant. Cells alone were used as a negative control.
The immunostimulatory effect was tested further using a variety of samples including royal jelly. Prior to the trial a monocyte cell culture was produced in order to eliminate any natural variation errors. The monocyte culture was then stimulated using a variety of agents and TNF-α concentration measured after 4 hours of treatment with the various reagents.
The immunostimulatory effect was tested further using a variety of honey derived AGP compounds and apisimin. […] The monocyte culture was then stimulated using a variety of agents and TNF-α concentration measured after 4 hours of treatment with the various reagents.
The immunostimulatory effect was tested further using a honey derived AGP compound, apisimin and Polymyxin B acting as an LPS inhibitor. […] The monocyte culture was then stimulated using a variety of agents and TNF-α concentration measured after 4 hours of treatment with the various reagents. […]

apisimin = biological target: T1, apisimin (Apis mellifera, UniProt Q8ISL8); experiment: Dot blot assay of apisimin self binding versus insulin and bovine albumin (Example 1, FIG. 1); conditions: darker colour means greater binding
T1 sequence (Q8ISL8 25-78): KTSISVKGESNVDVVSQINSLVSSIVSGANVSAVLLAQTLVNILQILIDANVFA
Procedure: FIG. 1 illustrates the results of a dot blot assay to test the self binding properties of apisimin against two other proteins not know to be self binding being insulin and bovine albumin. 1=apisimin, 2=insulin, 3=bovine albumin. The darker the colour the greater the degree of binding;
An experiment was conducted to confirm the self-binding nature of apisimin versus other peptides being insulin and bovine albumin.

With lipopolysaccharide [LPS] the TNF-α response (monocyte cell line) was “approximately 1700 μg/ml”.
“insulin: comparison protein not known to be self binding” was tested, and the “self binding (dot blot colour)” value (apisimin) was “weak or not self binding”.
“albumin: bovine albumin, comparison protein not known to be self binding” was tested, and the “self binding (dot blot colour)” value (apisimin) was “weak or not self binding”.
